Measured values: a protein production outcome set (Wang et al. 2014)

Test: label from the status in PepcDB records

Question: For “MRNNLSAYSNIETGEAATELECFPYSVQHNDEGVCLLVRMGPHRILLDCGLADISSIQKSLTPSVKRGNPPSPADLVLVTHAHPDHARGLLALHQAFPNLPIYGSEVTSKLLPLNWLDHNPQEIPQLCHALPLRSPVELQDGLVAEIFPCGHLPGAVAILLTYTTEQRSYKLLYTGDFFLSNSRLVEGLRLEELRGIDLNVLIIEGTYGTSRHPHRRNQENQLAERINRAISDRYSVVLPTPALGLGQELLMLLRSHHHFTGRDLDIWVDGAVAIGCDAYLELLPHLPASVQNFARHQPLFWDERVRPRVRRLQAENRSIVGKSPCIVLTDSTSDLEQYCQPETGPWLILLPEKIDIKVNKKYSAPTTVESYLLAQHSDGPGTTQLIHNLRPQHVVFVHGSPAYLADLTCLEELQNRYHIHSPAAETMVELLIGETFLQPAPPETNYEGELTELGTVITISIPEAITADPRWRQFADTGLIEARWQGEELVLRGLTQRELLNQNSDRNIPPEIDCCGTCRHQRGQRCWNPSSPLYNFRVTLEGHCPAFERLSNGE”, which protein production is on record?
Answer: The protein production was “failed”.

Question: With “MRNPNDVFHLAIPARDLDEAYDFYVTKLGCKLARRYPDRITLDFFGDQLVCHLSDRWDREVSMYPRHFGITFRDKKHFDNLYKLAKQRGIPFYHDLSRRFEGLIEEHETFFLIDPSNNLLEFKYYFDDRMMY” as the sequence, how does the protein production read?
Answer: Its protein production is “not failed”.

Question: For “MRPAHICLAVLVAAVWGVNFTVIEVGLAHFPPLLFSALRFLAAALPAVFFVGRPKVAWKWIVAVGLVLGVAKFGLLFIGMDAGMPAGLSSLVLQIQAVFTALIAFAALGERPTGIRLAGMAVALCGVGLAAVDEGTGGPLGAFALVIGAAVCWGASNVLTRKASPPDPLNFMVWVSTVPVVPLLGLSLLTEGPSADLNALGSLDWQGAGVILYVAWITTVFGFGAWGWLLHRHPASTVAPFSLLVPVFGMSSAALFLGEPIGPMRWGAAALLAGGVALTSLAPGKERSGGPNTLDLRGVGIHEAGR”, which protein production is on record?
Answer: The protein production was “failed”.

Question: Which protein production does the source give for “MRPCCHWRPGPSGCHCCAGCGLAAEARRARERRGEAVIGLCGALAGEVRAGRQPGEALLHAAGDSGGLGDAQAAVLAAARFGGDVPGALADAAGQPGAEGLLGLGACWRVAVDRGAGLAAGLDRLEAALRAERDQRAELRAQLAGARSTAVMLAALPVLGLLLGTALGADPLHVVLHTGAGLACLLAGAVLEGAGLWWALRIVRGAEAA” here?
Answer: The protein production was “failed”.

Question: For “MRPDLSRVPGVLGEIARKRASEVAPYPLPEPPSVPSFKEALLRPGLSVIAEVKRQSPSEGLIREVDPVEAALAYARGGARAVSVLTEPHRFGGSLLDLKRVREAVDLPLLRKDFVVDPFMLEEARAFGASAALLIVALLGELTGAYLEEARRLGLEALVEVHTERELEIALEAGAEVLGINNRDLATLHINLETAPRLGRLARKRGFGGVLVAESGYSRKEELKALEGLFDAVLIGTSLMRAPDLEAALRELVG”, which protein production is on record?
Answer: The protein production was “not failed”.

Question: For “MRPETLAVIQKQLTKIKAAQRNMTDNEVLRSMDEIMFCFENCYTEDETFTHIAQMFPSYVLKIVKSFFQISKAVTDEESREAYLTDAEECASVRRSQARDTSEEAKRSQDTLMGRLILIFMRPETREIIEMQLLPAMKLVKERLEREVEKQSMDEFMFCFENCYTEKETEMHVTRKFPSLKQSDVGIGFQTFIGLIDKESSREAYLKDAEDCANVRRIEARQGEASTSHKCEPNCNKH”, which protein production is on record?
Answer: The protein production was “failed”.

Question: Which protein production does the source give for “MRPLARLRGRRVVPQRSAGELDAMAAAGAVVAAALRAIRAAAAPGTSSLSLDEIAESVIRESGATPSFLGYHGYPASICASINDRVVHGIPSTAEVLAPGDLVSIDCGAVLDGWHGDAAITFGVGALSDADEALSEATRESLQAGIAAMVVGNRLTDVAHAIETGTRAAELRYGRSFGIVAGYGGHGIGRQMHMDPFLPNEGAPGRGPLLAAGSVLAIEPMLTLGTTKTVVLDDKWTVTTADGSRAAHWEHTVAVTDDGPRILTLG” here?
Answer: Its protein production is “failed”.

Question: For “MRPVDEQWIEILRIQALCARYCLTIDTQDGEGWAGCFTEDGAFEFDGWVIRGRPALREYADAHARVVRGRHLTTDLLYEVDGDVATGRSASVVTLATAAGYKILGSGEYQDRLIKQDGQWRIAYRRLRNDRLVSDPSVAVNVADADVAAVVGHLLAAARRLGTQMSDT”, which protein production is on record?
Answer: Its protein production is “not failed”.

Question: With “MRQPFQVLVIPFIKTEANYQFGVLHRTDADVWQFVAGGGEDEEAISETAKRESIEELNLDVDVKMYSLDSHASIPNFHFSFNKPYVVPEYCFAIDLTSCSYQVTLSLEHSELRWVSYESAIQLLEWDSNKTALYELNERLKNNDMKAM” as the sequence, how does the protein production read?
Answer: Its protein production is “not failed”.

Question: With “MRQRDDSKRIAFLEATVREVADHGFSATSVGKIAKAAGLSPATLYIYYEDKEQLLLATFYYVSDQVIDAALDSFSRGKDLREGLRRQWHTLFRIGLERPELFRYHETFTHSAWMTPEIQARNESRAANLLNAVDQGKQSGLIKPVPFPLLETFMFRPIYHLVQRCLQGSFEGTDEHIELAFNMAWDAVADRRNT” as the sequence, how does the protein production read?
Answer: Its protein production is “not failed”.

Question: Which protein production does the source give for “MRQSYRTPLLASLLVLICAVVLWNAYEWFQGRYLRAFSEHTAMFSGDPLQLPAELAGPGAIRLVHFWDPACPCNVGNQQHLAELIEAYSPRGVEFYAVQKPGSHGQLPATLSRLKHLDSLPGAEQIPASPAVAIWDRNGKLAYFGPYSEGLTCNSSNSFIEPILQALEDNRPVSATHTLAIGCYCPWPA” here?
Answer: The protein production was “failed”.

Question: With “MRQTQVKSPYCHQSNYKLAIAIITVITGTVVTGATVTTGTAIMNGVKTAGGIMIMATIVAGISVKRMNVAIVKAGAIVTIIVEKAADMDTAIKHIRQWSTMPDATLARLIRPTNQLFNA” as the sequence, how does the protein production read?
Answer: Its protein production is “failed”.

Question: For “MRQYNPPAMNIPQEVARRRTFAIISHPDAGKTTLTEKLLLFAGAIQIAGSVKARKASRHASSDWMEIEKQRGISVASSVMQMEYRDCVINLLDTPGHQDFSEDTYRVLTAVDAALMVIDAANGVEPQTIRLLQVCRARNTPIITFINKLDREVREPLELLSEIEGHLGMDTVPFSWPVGMGKAFGGVFDIRRNRMRIFRAGQERRGEDDEFIDGLDNPEIPRRFGAAFAQASGEIELINEAAPAFDREAFLAGKQTPVFFGSAINNFGVQEVLDALVDQAPAPGPRQALEREVRPDEPKFTGVVFKVQANMDPAHRDRVAFVRVSSGRFERGMRLKVARTGKEMRPNNVVSFLSQRRELLDEAYAGDVIGIPNHGVLQLGDVLTEGESLRFTGLPFFAPELFQAVEVKDPLRTKQLRVGLTQLGEEGAIQVFRPEAAGGALLLGAVGQLQFEVVAHRLKTEYGVDARMMPSRYTSARWITSDDPRALRKFMDANAAHIAYDVVDAAAFLITSPAQLRVAEDLYPNVKFHALREHGGKVFGDKA”, which protein production is on record?
Answer: The protein production was “failed”.

Question: Which protein production does the source give for “MRRCCGDLAASRGGCEPASRNLTRTRLTFAALGRINRPAEHDREDAMTRQEARDHEPRDQDAALSRRTLVRGLALGAAATMAGPALAQTGPAAPPTTITTPPRDFGPNGAPTTYFWDPDIIAVDPSFDDLAQPNTAIKRLYTGVLWAEGPAWSAQGRYLLWSDIPNNRQMRWSEDDGRISVFRSPSNNSNGNSFDFQGRQLSCEHLTRRVTRYEHDGTATVLCDNYNGKKLNSPNDVVAHPDGSYWFTDPPYGGQLYEGEPDAAGGPSNSGGKLNPRIGQPAGFTPGKRELPTNCYRIDPSGRVDLVVTEEQVPDPNGLCFSPDFKKLYVVSTGKGPGDSGPGGKGEIFVFDVGADNKLSNQKRFSDCTIDGVKCGPDGVRCDVNGNVWASSNAGRAVGYSGVTVWSPEGKLLGRIRLPEVCGNICFGGPKRNRLFMAASQSLYAVFTATQGAGPGLEHHHHHH” here?
Answer: Its protein production is “not failed”.

Question: For “MRRGDIGSCDRVDPSGKTLAGCDAGGDRGLGHGAFSSRAMWASDRTAARLLRPTLRQINTRLAGPPDPSISASMERAADMQTLLREIRNTPLLWMLVFVPIVLLAEAAAPHSHTLLFVLAVLAIVPLAALLSHATEAVAAKTGDAVGGLLNATLGNLTELIIAITALRAGQYMLVKASIAGAIVTNAVFMLGACLLLGGLRYHVQEYNRAGARLSSGLLLMATVALLAPSAVADLEHLPQGGGILNKLSVGISVLLIIAYALGLLFSLGTHKELFASADHGDDKEAHWPIGIAVGTLLVVTVLVALVSEIFVESVQKAAETFGMSPAFVGFIIVSLVGAAAEFAVAFGAARKDRLDMVVSIALGSASQIALFVAPALVLLSYVVGPTPMNLQFWPGAVTMVMIATVTSAFITASGRSAWFVGALMIFIYAVFALTLYVVPPAGEG”, which protein production is on record?
Answer: The protein production was “failed”.

Question: For “MRRITVGPFNRVEGDLEVRLDIDDGVVVSAEVTAPLYRGFEQILEGRPSLDALTLAPRICGICSVSQSMAAVAALRAVDGLHPAPNGLHAANIAHAAENAADHLTHFYVFFMPDFARDSYAAWPWHPAVAERFTATRGTAAREVLPARARLLEIMGLIAGKWPHSLAFQPGGTTRAIGLGERVRLLSIIADFRGFLESIVFGDDLEAVLALRSAAALESWRDGRIGDFARFLAIADDLALDKLGRGATSLMSFGAYQGLEAPLFAAGLYDPATSTPRVLDIDAITEDVSHAWMRDTAAEPALAQTLPDADRPGGYSWCKAPRLDSRPIEVGALARQAVDGDALIRDLVRRHGPNVRTRVIARLLETARLALAMDRWARQIALDAPFLDAAARVGEGAGIGLVEAARGSLGHWIELSGDRIRRYQIIAPTTWNFSPRDADGVAGPLEQALVGTPVGAEGAASVAVQHVVRSFDPCMVCTAH”, which protein production is on record?
Answer: Its protein production is “failed”.

Question: Which protein production does the source give for “MRRLFPEESEALLFKTLNYIPIPILLSEALAVEGRRPSTHRIHRFMNHAFVEQLGYNLSEIPNIAAWFDTVYPDPIIREQAMLEWDSVVYESEQQGLSTAGFKTFIRCGTGQFRWFLINAQLTTENQSNLNIVTMRDVHQLQLLLEENERQSKTDLLTGLANRRQIEDVLAAAMAKSDRTQSSLCVVMCDIDFFKNINDNFGHLCGDDVLKIVASQLQHSAQAATCIARWGGEEFLIVLEHVVPESAGVLCEQLRGLIAATDYQSYGQHMQLTMSFGCVQYQANESLQSLLCRVDKALYQAKNGGRNQVVMD” here?
Answer: Its protein production is “failed”.

Question: For “MRRLNLILLLSAVTAALAFVISCKETNAERLEKMCGEWVSTGGKPPFTLWEEDGRYRVTVMHRNHTGGSEAETYLVRETEGVLFIETGFAVMMDYDREKDRIRLSPGGEYRRKSDGTLKQ”, which protein production is on record?
Answer: The protein production was “failed”.

Question: Which protein production does the source give for “MRRLNRFKAPDEKVNTLFQVYKTISFWKVVKNTVVVEFGRFFPWMGGKRNIYRACLGMKIGKKTAIAYKVMPDLFFPEKITIGENSIIGYHTTILTHEYLLSEYHVGEVVIGKNVMVGANVTILPGIEIGDGAIVAAGAVVSKDVPPESFAYGNPLVIKEKAALEHHHHHH” here?
Answer: The protein production was “not failed”.

Question: For “MRRPPVVGVLLAAGRGSRFDPDGTVNKLLAALPDGTPVAVQAARHLRAVLDDVVAVVPAAGTHGAEVERLAALLAEAGCEVLRCARAARGMGASLAAGVAARPHAGGWIIALADMPWLAPHTIARVAQALDARHCVAPFHQGRRGHPIGFGADYFAGLAALDGDEGARALIDPARLIRLDVGDAGTLRDVDTPADVCGA”, which protein production is on record?
Answer: The protein production was “failed”.

Question: Which protein production does the source give for “MRRRGKGGGSVFYHEGKGKWVAQLTWIDPATGRKVKREKHCETRKEAERALADMVVAQAKGLLTDPSRLTTRDFALDYLKRLEREGLRPNSIRLAQEELAHALPSLKDPKAHDPLGRMRLQEVKPVHVRAAVDRVAEAGYAPRTVGRVLMRLKALFREALRLELVARNPAEAVRLRLPKGEKTARALEPQEVARLLETAEASRSKDMALLLRLMLETGLRRGEALALQWRDIDLEAGELTVWRSWTKARGKGAFSEPKTPTAKRKVPLPRGLLLRLKARREELLERLTPEEVDGLFLVGGVKPVDPDAFNHYLRRLAERAGLGRVRVHDLRHTWATLALSRGVPLEVVSERLGHASPTITLNVYRHLLEEERRGWVLDLEELLYPAPRAQA” here?
Answer: Its protein production is “failed”.

Question: With “MRRSLRHGFTALLTTWALLLPTVAVAQEPIDNVPEVTADNAETLEDIIDDALTPTTRLEAPNTDLCPYKESPSPARSTSEVVAPGAQTPALVPVPSVPAGGEKLATCGVITPNGFELPEDSDETITASAWMVFDIDSGEIIAAKDPHGRYRPASIIKVLLSLVAIDELNPTTVVTGTMEAANIEGSRVGVGEGGQYTVDQLLHGLLLASGNDAAYLLAQELGGDQATLEKVNALAKELGTQDTFVATYSGLDAPGMSTSAYDMSLIYQHAWQNPVFESIISTDHIDFPGWGDNEGFQVWNDNALFMNDPDGIGGKTGYTDDANHTFVGGLDRGGRRLAAVLLDSTVSDIRPWEQARLLIDASLPITPGSGVGQLGSGSANDVAPATPELPEPTDNLTSGEGGSQNTLLKLVVPIGIIVLLLIAALAWTFRSPKKKN” as the sequence, how does the protein production read?
Answer: The protein production was “failed”.
